This data set concerns the target T1, GmEIL1 (Glycine max (cv. Suinong 10), UniProt A0A0R4J4Z8 1-610).
T1 sequence: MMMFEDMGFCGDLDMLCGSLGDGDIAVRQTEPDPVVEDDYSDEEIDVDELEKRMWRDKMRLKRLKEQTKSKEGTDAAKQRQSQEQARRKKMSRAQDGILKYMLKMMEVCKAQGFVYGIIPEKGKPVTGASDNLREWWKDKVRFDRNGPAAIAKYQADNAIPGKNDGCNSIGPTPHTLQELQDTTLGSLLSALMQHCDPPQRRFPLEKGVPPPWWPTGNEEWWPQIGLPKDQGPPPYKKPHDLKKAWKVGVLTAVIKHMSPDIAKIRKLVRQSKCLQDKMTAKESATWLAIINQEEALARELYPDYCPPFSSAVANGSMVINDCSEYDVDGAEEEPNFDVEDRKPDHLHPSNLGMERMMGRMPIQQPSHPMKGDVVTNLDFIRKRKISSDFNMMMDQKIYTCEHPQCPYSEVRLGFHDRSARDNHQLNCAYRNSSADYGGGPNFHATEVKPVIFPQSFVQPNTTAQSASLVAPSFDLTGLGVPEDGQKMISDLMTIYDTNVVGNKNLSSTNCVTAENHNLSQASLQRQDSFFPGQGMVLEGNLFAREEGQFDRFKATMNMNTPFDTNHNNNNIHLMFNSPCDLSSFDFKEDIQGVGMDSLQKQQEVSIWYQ
As to the kind of experiment: EMSA; EMSA after Garner and Revzin (1981), chemiluminescent detection; buffer, salt, pH and temperature not stated. The following applies: protein: recombinant; chain copies: 2; label: digoxigenin-ddUTP (Methods, legend); text also says biotin. In general terms: Mobility shift assays separate free from complexed probe on a gel.

B1: EBS probe (dsDNA)
DNA 1: GTTGTTTGGGATTCAAGGGGCATGTATCTTGAATCC
DNA 2: GGATTCAAGATACATGCCCCTTGAATCCCAAACAAC
Consider B1, for which the binding result is given as “binds”.

B2: mEBS probe (dsDNA)
DNA 1: GTTGTTTGGGATTCAAGGGGCCCCCCTCTTGAATCC
DNA 2: GGATTCAAGAGGGGGGCCCCTTGAATCCCAAACAAC
B2: the binding result was “no binding”.
